From US20160264649A1

Experiments:
Test in all cases: cell-based or functional assay
[1] = target: HIV-1 MGRM-D-020 Env (HIV-1)
[2] = target: HIV-1 MGRM-G-006 Env (HIV-1)
[3] = target: HIV-1 MGRM-D-008 Env (HIV-1)
[4] = target: HIV-1 MGRM-AG-012 Env (HIV-1)
[5] = target: HIV-1 MGRM-D-005 Env (HIV-1)
[6] = target: HIV-1 92UG005 Env (HIV-1)
[7] = target: HIV-1 MGRM-D-021 Env (HIV-1)
[8] = target: HIV-1 MGRM-G-016 Env (HIV-1)
[9] = target: HIV-1 MGRM-AE-004 Env (HIV-1)
[10] = target: HIV-1 MGRM-G-028 Env (HIV-1)
[11] = target: HIV-1 MGRM-F1-020 Env (HIV-1)
[12] = target: aMLV envelope (negative control pseudovirus)
[13] = target: HIV-1 LAVIC_18 Env on pseudovirus (HIV-1)
[14] = target: HIV-1 MGRM-C-005 Env on pseudovirus (HIV-1)
[15] = target: HIV-1 MGRM-G-017 Env (HIV-1)
[16] = target: HIV-1 MGRM-F1-004 Env (HIV-1)
HIV-1 NL43 Env (HIV-1) = target: HIV-1 NL43 Env (HIV-1)
[17] = target: HIV-1 6535.3 (Acute) Env on pseudovirus (HIV-1)
[18] = target: HIV-1 MGRM-C-004 Env on pseudovirus (HIV-1)
[19] = target: HIV-1 JRFL Env on pseudovirus (HIV-1)
[20] = target: HIV-1 MGRM-Chronic-B-008 Env on pseudovirus (HIV-1)
[21] = target: HIV-1 MGRM-D-022 Env (HIV-1)
[22] = target: HIV-1 APV_17 Env on pseudovirus (HIV-1)
[23] = target: HIV-1 MGRM-C-006 Env on pseudovirus (HIV-1)
[24] = target: HIV-1 98IN022 Env on pseudovirus (HIV-1)
HIV-1 APV-6 Env (HIV-1) = target: HIV-1 APV-6 Env (HIV-1)
[25] = target: HIV-1 MGRM-AG-013 Env (HIV-1)
[26] = target: HIV-1 93RW029 Env (HIV-1)
[27] = target: HIV-1 92RW026 Env (HIV-1)
[28] = target: HIV-1 92RW020 Env (HIV-1)
[29] = target: HIV-1 92RW024 Env (HIV-1)
[30] = target: HIV-1 MGRM-A-013 Env (HIV-1)
[31] = target: HIV-1 MGRM-A-007 Env (HIV-1)
[32] = target: HIV-1 MGRM-A-003 Env (HIV-1)
[33] = target: HIV-1 92UG037 Env (HIV-1)
[34] = target: HIV-1 92RW009 Env (HIV-1)
[35] = target: HIV-1 MGRM-A-008 Env (HIV-1)
[36] = target: HIV-1 MGRM-A-004 Env (HIV-1)
[37] = target: HIV-1 MGRM-A-001 Env (HIV-1)
[38] = target: HIV-1 MGRM-A-014 Env (HIV-1)
[39] = target: HIV-1 MGRM-A-011 Env (HIV-1)
[40] = target: HIV-1 94KE105 Env (HIV-1)
[41] = target: HIV-1 93UG077 Env (HIV-1)
[42] = target: HIV-1 94UG103 Env (HIV-1)
HIV-1 VLGCA1 Env (HIV-1) = target: HIV-1 VLGCA1 Env (HIV-1)
[43] = target: HIV-1 92UG031 Env (HIV-1)
[44] = target: HIV-1 MGRM-A-010 Env (HIV-1)
[45] = target: HIV-1 92RW021 Env (HIV-1)
[46] = target: HIV-1 MGRM-A-012 Env (HIV-1)
[47] = target: HIV-1 MGRM-A-002 Env (HIV-1)
[48] = target: HIV-1 92RW008 Env (HIV-1)
[49] = target: HIV-1 MGRM-A-009 Env (HIV-1)
[50] = target: HIV-1 MGRM-A-006 Env (HIV-1)
[51] = target: HIV-1 MGRM-A-005 Env (HIV-1)

Substance: 2F5 (antibody)
- IC50 (µg/ml), pseudovirus neutralization [1]: > 50 µg/mL
- IC50 (µg/ml), pseudovirus neutralization [2]: 1.33 µg/mL
- IC50 (µg/ml), pseudovirus neutralization [3]: > 50 µg/mL
- IC50 (µg/ml), pseudovirus neutralization [4]: 0.33 µg/mL
- IC50 (µg/ml), pseudovirus neutralization [5]: > 50 µg/mL
- IC50 (µg/ml), pseudovirus neutralization [6]: 8.61 µg/mL
- neutralization IC50 [6]: 11.8 µg/mL
- neutralization IC90 [6]: > 50 µg/mL
- IC50 (µg/ml), pseudovirus neutralization [7]: > 50 µg/mL
- IC50 (µg/ml), pseudovirus neutralization [8]: 16.8 µg/mL
- IC50 (µg/ml), pseudovirus neutralization [9]: 0.98 µg/mL
- IC50 (µg/ml), pseudovirus neutralization [10]: 2.24 µg/mL
- IC50 (pseudovirus neutralization) [11]: 0.59 µg/mL
- IC50 (pseudovirus neutralization) [12]: > 50 µg/mL
- IC50 [13]: > 50 µg/mL
- IC50 [14]: > 50 µg/mL
- IC50 (µg/ml), pseudovirus neutralization [15]: 0.6 µg/mL
- IC50 (pseudovirus neutralization) [16]: 4.31 µg/mL
- neutralization IC50 (HIV-1 NL43 Env (HIV-1)): 2.41 µg/mL
- neutralization IC90 (HIV-1 NL43 Env (HIV-1)): 19.3 µg/mL
- IC50 [17]: 2.76 µg/mL
- IC50 [18]: > 50 µg/mL
- IC50 [19]: 3.54 µg/mL
- IC50 [20]: > 50 µg/mL
- IC50 (µg/ml), pseudovirus neutralization [21]: 8.45 µg/mL
- IC50 [22]: 4.61 µg/mL
- IC50 [23]: > 50 µg/mL
- IC50 [24]: > 50 µg/mL
- neutralization IC50 (HIV-1 APV-6 Env (HIV-1)): 0.1 µg/mL
- IC50 (µg/ml), pseudovirus neutralization [25]: 1.79 µg/mL
- neutralization IC50 [26]: > 50 µg/mL
- neutralization IC50 [27]: 8.63 µg/mL
- neutralization IC50 [28]: 3.36 µg/mL
- neutralization IC50 [29]: 8.22 µg/mL
- neutralization IC50 [30]: 0.66 µg/mL
- neutralization IC50 [31]: 16.3 µg/mL
- neutralization IC50 [32]: 7.37 µg/mL
- neutralization IC50 [33]: 3.24 µg/mL
- neutralization IC50 [34]: 39.1 µg/mL
- neutralization IC50 [35]: > 50 µg/mL
- neutralization IC50 [36]: 7.49 µg/mL
- neutralization IC50 [37]: > 50 µg/mL
- neutralization IC50 [38]: 1.43 µg/mL
- neutralization IC50 [39]: > 50 µg/mL
- neutralization IC50 [40]: > 50 µg/mL
- neutralization IC50 [41]: 3.3 µg/mL
- neutralization IC50 [42]: 1.92 µg/mL
- neutralization IC50 (HIV-1 VLGCA1 Env (HIV-1)): 3.9 µg/mL
- neutralization IC50 [43]: 3.81 µg/mL
- neutralization IC50 [44]: 20.8 µg/mL
- neutralization IC50 [45]: 4.16 µg/mL
- neutralization IC50 [46]: 2.36 µg/mL
- neutralization IC50 [47]: > 50 µg/mL
- neutralization IC50 [48]: 10.4 µg/mL
- neutralization IC50 [49]: 9.4 µg/mL
- neutralization IC50 [50]: 15.7 µg/mL
- neutralization IC50 [51]: 5.7 µg/mL

Substance: 2G12 (antibody)
- IC50 (µg/ml), pseudovirus neutralization [1]: > 50 µg/mL
- IC50 (µg/ml), pseudovirus neutralization [2]: > 50 µg/mL
- IC50 (µg/ml), pseudovirus neutralization [3]: > 50 µg/mL
- IC50 (µg/ml), pseudovirus neutralization [4]: 1.94 µg/mL
- IC50 (µg/ml), pseudovirus neutralization [5]: 25.7 µg/mL
- IC50 (µg/ml), pseudovirus neutralization [6]: > 50 µg/mL
- neutralization IC50 [6]: > 50 µg/mL
- neutralization IC90 [6]: > 50 µg/mL
- IC50 (µg/ml), pseudovirus neutralization [7]: 23 µg/mL
- IC50 (µg/ml), pseudovirus neutralization [8]: > 50 µg/mL
- IC50 (µg/ml), pseudovirus neutralization [9]: > 50 µg/mL
- IC50 (µg/ml), pseudovirus neutralization [10]: 28.2 µg/mL
- IC50 (pseudovirus neutralization) [11]: > 50 µg/mL
- IC50 (pseudovirus neutralization) [12]: > 50 µg/mL
- IC50 [13]: > 50 µg/mL
- IC50 [14]: > 50 µg/mL
- IC50 (µg/ml), pseudovirus neutralization [15]: > 50 µg/mL
- IC50 (pseudovirus neutralization) [16]: > 50 µg/mL
- neutralization IC50 (HIV-1 NL43 Env (HIV-1)): 0.75 µg/mL
- neutralization IC90 (HIV-1 NL43 Env (HIV-1)): 15.8 µg/mL
- IC50 [17]: 3.85 µg/mL
- IC50 [18]: > 50 µg/mL
- IC50 [19]: 1.45 µg/mL
- IC50 [20]: 0.55 µg/mL
- IC50 (µg/ml), pseudovirus neutralization [21]: > 50 µg/mL
- IC50 [22]: > 50 µg/mL
- IC50 [23]: > 50 µg/mL
- IC50 [24]: > 50 µg/mL
- neutralization IC50 (HIV-1 APV-6 Env (HIV-1)): 5.3 µg/mL
- IC50 (µg/ml), pseudovirus neutralization [25]: 0.95 µg/mL
- neutralization IC50 [26]: > 50 µg/mL
- neutralization IC50 [27]: 17.2 µg/mL
- neutralization IC50 [28]: 0.48 µg/mL
- neutralization IC50 [29]: > 50 µg/mL
- neutralization IC50 [30]: > 50 µg/mL
- neutralization IC50 [31]: > 50 µg/mL
- neutralization IC50 [32]: > 50 µg/mL
- neutralization IC50 [33]: 45.2 µg/mL
- neutralization IC50 [34]: 26.1 µg/mL
- neutralization IC50 [35]: > 50 µg/mL
- neutralization IC50 [36]: > 50 µg/mL
- neutralization IC50 [37]: > 50 µg/mL
- neutralization IC50 [38]: > 50 µg/mL
- neutralization IC50 [39]: > 50 µg/mL
- neutralization IC50 [40]: 7.22 µg/mL
- neutralization IC50 [41]: > 50 µg/mL
- neutralization IC50 [42]: 48.1 µg/mL
- neutralization IC50 (HIV-1 VLGCA1 Env (HIV-1)): > 50 µg/mL
- neutralization IC50 [43]: > 50 µg/mL
- neutralization IC50 [44]: 17 µg/mL
- neutralization IC50 [45]: > 50 µg/mL
- neutralization IC50 [46]: > 50 µg/mL
- neutralization IC50 [47]: > 50 µg/mL
- neutralization IC50 [48]: 22.5 µg/mL
- neutralization IC50 [49]: 7.47 µg/mL
- neutralization IC50 [50]: 13.8 µg/mL
- neutralization IC50 [51]: > 50 µg/mL
